In patent EP3541419B1:

Molecular target: human dipeptidyl peptidase 4 (DPP4) expressed by cells (human) (UniProt P27487)
Assay: cell-based or functional assay

Chain of UniProt P27487 (P27487 whole entry): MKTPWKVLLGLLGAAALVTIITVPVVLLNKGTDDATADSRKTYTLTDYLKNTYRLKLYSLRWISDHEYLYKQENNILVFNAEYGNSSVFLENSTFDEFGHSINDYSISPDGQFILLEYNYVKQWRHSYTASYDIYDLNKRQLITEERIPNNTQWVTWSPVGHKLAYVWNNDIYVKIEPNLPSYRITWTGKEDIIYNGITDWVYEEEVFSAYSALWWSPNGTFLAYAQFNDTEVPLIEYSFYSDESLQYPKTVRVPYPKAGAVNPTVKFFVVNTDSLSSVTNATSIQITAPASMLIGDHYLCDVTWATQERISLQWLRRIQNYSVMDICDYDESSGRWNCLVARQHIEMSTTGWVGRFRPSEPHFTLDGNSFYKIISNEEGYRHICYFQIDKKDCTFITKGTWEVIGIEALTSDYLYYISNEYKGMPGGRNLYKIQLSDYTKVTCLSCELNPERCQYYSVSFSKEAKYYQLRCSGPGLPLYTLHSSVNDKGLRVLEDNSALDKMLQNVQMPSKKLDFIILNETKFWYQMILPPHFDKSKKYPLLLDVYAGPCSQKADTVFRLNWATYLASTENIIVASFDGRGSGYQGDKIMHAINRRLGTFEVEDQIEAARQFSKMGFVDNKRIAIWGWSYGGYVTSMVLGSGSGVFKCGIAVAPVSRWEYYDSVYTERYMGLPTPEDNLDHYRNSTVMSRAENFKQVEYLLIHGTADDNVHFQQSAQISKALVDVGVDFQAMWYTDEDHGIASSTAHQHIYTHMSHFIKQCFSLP

Substance: S377-588-Fc (residues 377-588 of MERS-CoV S protein fused to Fc of human IgG) (Fc fusion)
- inhibition of CPE formation caused by MERS-CoV infection in Calu-3 cells: 3 µg/mL
